Experimental data as given in PMC3834827, “Crystal structure of the DdrB/ssDNA complex from Deinococcus radiodurans reveals a DNA binding surface involving higher-order oligomeric states” (Nucleic Acids Research, 2013).
Blank lines part the entries; values can stand above or below the molecule they belong to.

Key:
[1] = biological target: DdrB E51A mutant with N-terminal 6His tag (Deinococcus radiodurans) (UniProt Q9RY80); test: AUC; sedimentation velocity, 20°C, 42 krpm, 100 mM KCl, 20 mM Tris pH 8.0, loading concentrations 10 µM to 0.64 mM, absorbance and interference optics, no DNA; pentamer and assemblies of pentamers
[2] = biological target: DdrB R83A mutant with N-terminal 6His tag (Deinococcus radiodurans) (UniProt Q9RY80); test: as above
DdrB1-144 [3] = biological target: T1, DdrB1-144 (Deinococcus radiodurans, UniProt Q9RY80 1-144); test: fluorescence anisotropy; per pentamer, A+B=AB model; FP: 20 mM Tris pH 8.0, 100 mM KCl, 200 nM DNA; EMSA: same plus 15% glycerol, 10 uM DNA; temperature not stated; conditions: protein: recombinant; tags: N-terminal 6His (pET151, not cleaved); chain copies: 5; label: 5' 6-FAM
T1 sequence: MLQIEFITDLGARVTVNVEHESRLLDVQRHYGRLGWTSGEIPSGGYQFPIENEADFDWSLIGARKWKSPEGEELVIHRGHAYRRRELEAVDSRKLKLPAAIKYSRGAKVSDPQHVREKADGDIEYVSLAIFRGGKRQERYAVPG

DdrB E51A [4] = biological target: T2, DdrB E51A (Deinococcus radiodurans, UniProt Q9RY80 1-144, E51A); test: fluorescence anisotropy; 3 uM pentamer; full DNA binding activity retained; FP: 20 mM Tris pH 8.0, 100 mM KCl, 200 nM DNA; EMSA: same plus 15% glycerol, 10 uM DNA; temperature not stated; conditions: protein: recombinant; tags: N-terminal 6His; chain copies: 5; label: 5' 6-FAM
T2 sequence: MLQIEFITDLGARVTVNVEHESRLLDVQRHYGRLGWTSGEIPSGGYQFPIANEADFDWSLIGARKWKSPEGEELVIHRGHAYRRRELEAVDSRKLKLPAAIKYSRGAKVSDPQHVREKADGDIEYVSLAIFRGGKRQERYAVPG

DdrB W66A = biological target: T3, DdrB W66A (Deinococcus radiodurans, UniProt Q9RY80 1-144, W66A); test: fluorescence anisotropy; per pentamer; saturating anisotropy fixed to wild-type value; FP: 20 mM Tris pH 8.0, 100 mM KCl, 200 nM DNA; EMSA: same plus 15% glycerol, 10 uM DNA; temperature not stated; conditions: protein: recombinant; tags: N-terminal 6His; chain copies: 5; label: 5' 6-FAM
T3 sequence: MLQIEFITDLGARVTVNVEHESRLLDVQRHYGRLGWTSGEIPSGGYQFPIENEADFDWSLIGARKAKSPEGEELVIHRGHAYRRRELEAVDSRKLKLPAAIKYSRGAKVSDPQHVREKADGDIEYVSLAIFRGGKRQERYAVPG

[5] = biological target: the molecule itself; test: crystal structure; 740 µM DdrBDr with 160 µM 50b poly dT, hanging drop at 20°C; 2.30 Å; pentamer in the asymmetric unit, pentamer-pentamer interface by crystallographic symmetry
DdrB1-144 [6] = biological target: T1, DdrB1-144; test: EMSA; pentamer, decamer and penta-decamer complexes; 10 uM DNA; FP: 20 mM Tris pH 8.0, 100 mM KCl, 200 nM DNA; EMSA: same plus 15% glycerol, 10 uM DNA; temperature not stated; conditions: protein: recombinant; tags: N-terminal 6His (pET151, not cleaved); chain copies: 5
DdrB1-144, tag removed = biological target: T4, DdrB1-144, tag removed (Deinococcus radiodurans, UniProt Q9RY80 1-144); test: X-ray crystallography 2.30 A; MES pH 5.6, KCl, 10 mM MgCl2, PEG 8000; FP: 20 mM Tris pH 8.0, 100 mM KCl, 200 nM DNA; EMSA: same plus 15% glycerol, 10 uM DNA; temperature not stated; conditions: protein: recombinant; tags: 6His removed by TEV; chain copies: 5
T4 sequence: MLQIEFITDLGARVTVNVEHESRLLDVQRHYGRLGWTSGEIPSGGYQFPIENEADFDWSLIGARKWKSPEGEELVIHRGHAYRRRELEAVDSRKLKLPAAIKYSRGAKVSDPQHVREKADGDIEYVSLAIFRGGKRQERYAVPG

DdrB E51A [7] = biological target: T2, DdrB E51A; test: EMSA; single pentamer-DNA complex only, no higher-order shifts; 10 uM DNA; FP: 20 mM Tris pH 8.0, 100 mM KCl, 200 nM DNA; EMSA: same plus 15% glycerol, 10 uM DNA; temperature not stated; conditions: protein: recombinant; tags: N-terminal 6His; chain copies: 5

percent of the total signal from the pentamer [1]: 88%
stoichiometry N [1]: 5
Molecule: DdrB E51A mutant with N-terminal 6His tag (from UniProt Q9RY80 1-144) (domain or fragment)

percent of the total signal from the pentamer [2]: 92%
stoichiometry N [2]: 5
Molecule: DdrB R83A mutant with N-terminal 6His tag (from UniProt Q9RY80 1-144) (domain or fragment)

Molecule: TTTTTTTTTTTTTTTTTTTT (ssDNA) [20b poly dT]
Kd (DdrB1-144 [3]): 3.6 µM
binding result (DdrB E51A [4]): binds
Kd (DdrB W66A): 51 µM

B1: DdrB1-144 from Deinococcus radiodurans, 6His tag removed (protein used in crystallography) (domain or fragment, UniProt Q9RY80 1-144, looked up)
chain: MLQIEFITDLGARVTVNVEHESRLLDVQRHYGRLGWTSGEIPSGGYQFPIENEADFDWSLIGARKWKSPEGEELVIHRGHAYRRRELEAVDSRKLKLPAAIKYSRGAKVSDPQHVREKADGDIEYVSLAIFRGGKRQERYAVPG
notes: DdrB, Deinococcus radiodurans, residues 1-144 (stop codon introduced following residue 144), construct MJ4748 in pET151/D-Topo; Pentamer; Tag cleaved with TEV protease; also called DdrBDr; not shown: His6, N-terminal, cleaved
stoichiometry N [5]: 5

Molecule: TTTTTTTTTTTTTTTTTTTTTTTTTTTTTTTTTTTTTTTTTTTTTTTTTT (ssDNA) [50b poly dT]
binding result (DdrB1-144 [6]): binds
binding result (DdrB1-144, tag removed): binds
binding result (DdrB E51A [7]): binds
